Measurements from US6045809A, “Pharmaceutical compositions containing a superoxide dismutase” (Institut de Recherches Franctales, priority 1995, dated 2000).

Key:
rat paw oedema = experiment: λ carrageenan-induced paw oedema after oral administration (gavage); assay type: in vivo; settings: dose of 0.5 mg/kg
Description: To study the comparative kinetics of the anti-inflammatory action of a free form of SOD and a composition according to the invention, at different concentrations.
2 gavages are performed per day (morning and evening).
Injection of 0.1 ml of λ carrageenan 1% in the paw pad.
The measurements are made every hour for 6 hours.

granulocytes = experiment: Granulocyte activation (production of superoxide anions after stimulation with zymosan or PMA); assay type: cell-based
Description: The samples are those collected 3 hours after pleurisy.
Reagent control: PBS^+ (0.65 ml)+cytochrome C 5 mg/ml (0.15 ml).
Cell control: PBS^+ (0.65 ml)+cytochrome C 5 mg/ml (0.15 ml)+G 10 M/ml (0.2 ml).
Test: PBS^+ (0.45 ml)+cytochrome C 5 mg/ml (0.15 ml)+ZO or PMA (0.2 ml), with: NaCl control (column 1), SOD (column 2), Ceramide control (column 3), SOD+ceramides (column 4), Liposome control (column 5), Liposomal SOD (column 6).
Incubate for 15 minutes in a water bath at 37° C., with shaking,
stop the reaction for 10 minutes in an ice bath,
centrifuge for 5 minutes at 2000 rpm.

[1] = Erythrocyte SOD kinetics in anaesthetized rats after subcutaneous administration; parameters: species or system rat (male OFA, Sprague-Dawley); settings: rat, in vivo, sc
Description: (§1) The kinetics of the plasmatic SOD are analyzed in anaesthetized rats after the oral or subcutaneous administration of free SOD, liposomal SOD or SOD in the form of a composition according to the invention.
(§2) The rats used are male OFA, Sprague-Dawley rats which are devoid of pathogenic germs, weigh 300 to 400 g and are not of the same blood type (IFFA CREDO breed).
Subcutaneous administration:
bovine erythrocyte SOD (Allerbiodose®) 0.5-1-2 mg/ml, in NaCl 0.9%,
bovine erythrocyte SOD 0.5-1-2 mg/ml+plant ceramides 1% (Inocosm), in NaCl 0.9%, according to the invention,
liposomal bovine erythrocyte SOD 0.5-1-2 mg/ml,
(§3) bovine erythrocyte SOD+gliadin, according to the invention.
The solutions or suspensions to be studied are administered at T0 by the injection of a volume of 0.3 ml (in 0.9% NaCl solution) behind the animal's head (n=4).
(§4) Each series of experiments is carried out on 4 animals per dose, the control groups always being treated in parallel for each experiment.
(§5) Once the gavage (or the subcutaneous injection) has been performed on the animals, the latter are anaesthetized by the slow intraperitoneal injection of thiopental (0.1 ml/100 g).
The samples are taken every hour for 6 hours (400 μl) via the one-way tap. The blood is collected in heparinated Eppendorf tubes (20 μl of heparin 1000 IU/ml). It is then centrifuged for 5 min at 4000 rpm. […]

[2] = Erythrocyte SOD kinetics in anaesthetized rats after oral administration (gavage); parameters: species or system rat (male OFA, Sprague-Dawley); settings: rat, in vivo
Description: as §1, §2
bovine erythrocyte SOD (Allerbiodose®) 1-2-4 mg/ml, in NaCl 0.9%,
bovine erythrocyte SOD 1-2-4 mg/ml+plant ceramides 1% (Inocosm), in NaCl 0.9%, according to the invention,
liposomal bovine erythrocyte SOD 1-2-4 mg/ml,
as §3
The gavage is performed on the animals (n=4) at T0 with a volume of 1 ml of solution or suspension to be studied, in 0.9% NaCl solution. This gavage is performed using a cannula mounted on a 1 ml syringe and introduced into the buccal cavity of the rat.
as §4, §5
The samples are taken every hour for 6 hours (400 μl) via the one-way tap. The blood is collected in heparinated Eppendorf tubes (20 μl of heparin 1000 IU/ml). It is then centrifuged for 5 min at 4000 rpm. The plasma is then discarded and replaced with NaCl 0.9%. The tubes are centrifuged again for 5 min at 4000 rpm. The red blood cells are thus washed three times in succession.
The assays of the enzymatic activity of the erythrocyte SOD (of each form) are performed on each control or treated sample.
The erythrocytes are appropriately diluted in distilled water (+0.5 ml of 1% Triton solution) so that the inhibition obtained in the study tube is about 50% of that in the control tube.
The results obtained in IU SOD/ml are reported in IU SOD/mg haemoglobin. The haemoglobin is assayed by spectrophotometry at 405 nm.

SOD: bovine erythrocyte SOD (Allerbiodose®), in NaCl 0.9%
Number of gavages from which the anti-inflammatory effect is observed (rat paw oedema): ≥ 4 gavages
Significance (P) of the anti-inflammatory role (granulocytes; by oral administration): < 0.05
Effect of oral administration on granulocyte activation (in words) (granulocytes; oral administration, FIGS. 18 to 20): inhibitory effect
Cmax (comparison in words) [1]: slightly lower
Cmax (comparison in words) [2]: lower
Concentrations/passage of SOD after oral administration (in words) [2]: reaches high concentrations when administered orally
Tmax [2]: around 5 hours
